The values that follow come from paper PMC8580058 (ACS catalysis, 2019).

Data set [1] has as its target glucose-6-phosphate dehydrogenase (G6PDH) (Thermotoga maritima, UniProt Q9X0N9). The experiment in a line: specific activity of purified enzyme. Particulars: co-substrate glucose 6-phosphate. Format: biochemical.
Substrate in data set [2]: NC(=O)c1ccc[n+]([C@@H]2O[C@H](COP(=O)([O-])O)[C@@H](O)[C@H]2O)c1
The experiment in a line: steady-state kinetics of purified enzyme. Format: biochemical, Thermotoga maritima. Conditions: apparent constants; co-substrate 6-phosphogluconate; assay details in supplement.

Substrate in data set [3]: NC(=O)c1ccc[n+]([C@@H]2O[C@H](COP(=O)(O)OP(=O)(O)OC[C@H]3O[C@@H](n4cnc5c(N)ncnc54)[C@H](OP(=O)(O)O)[C@@H]3O)[C@@H](O)[C@H]2O)c1
As to the kind of experiment: steady-state kinetics of purified enzyme. Format: biochemical, Thermotoga maritima. Conditions: apparent constants; co-substrate 6-phosphogluconate; assay details in supplement.

glucose-6-phosphate dehydrogenase (G6PDH), sequence (Q9X0N9 whole entry): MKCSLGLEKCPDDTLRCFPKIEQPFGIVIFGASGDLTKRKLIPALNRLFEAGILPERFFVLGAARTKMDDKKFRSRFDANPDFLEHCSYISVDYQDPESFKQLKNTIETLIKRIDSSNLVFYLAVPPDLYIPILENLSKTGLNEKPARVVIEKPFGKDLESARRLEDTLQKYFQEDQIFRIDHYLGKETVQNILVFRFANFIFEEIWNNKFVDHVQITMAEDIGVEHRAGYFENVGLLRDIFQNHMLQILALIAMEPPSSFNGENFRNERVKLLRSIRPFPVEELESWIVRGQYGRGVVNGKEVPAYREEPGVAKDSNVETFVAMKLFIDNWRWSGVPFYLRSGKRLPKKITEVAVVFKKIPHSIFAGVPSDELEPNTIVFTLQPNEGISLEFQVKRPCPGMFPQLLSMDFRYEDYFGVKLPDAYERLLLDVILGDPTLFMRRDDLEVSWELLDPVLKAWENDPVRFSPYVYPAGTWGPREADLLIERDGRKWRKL

`NC(=O)c1ccc[n+]([C@@H]2O[C@H](COP(=O)([O-])O)[C@@H](O)[C@H]2O)c1` [NMN^+]: the “specific activity of purified enzyme” value in data set [1] is “color intensities of colonies positively correlated with the specific activities of the purified dehydrogenases on NMN^+”.

B1: 6-phosphogluconate dehydrogenase (6PGDH) (Thermotoga maritima MSB8) (protein)
chain: MKSHIGLIGLAVMGQNLALNIARKGYKVSVYNRTAQRTEEFVKNRVTNEEIEPHYDIESFVKSLERPRKIILMVKAGKPVDDTISQLLPHLEPGDLIIDGGNSHYMDTERRFKELSEKGILFLGMGVSGGEYGALHGPSLMPGGSREAYNLVEEILLEIAAKTEDGPCCTYVGERSAGHFVKMVHNGIEYAIMQAIAEVYHIMRDVLSLSSEEMSSIFEEWNRGELSSFLVEITYKILRKKDEETGKPMVDVILDKAEQKGTGKWTSQAALDLGIPTPSINLAVVERVISHFKDIRTRLSKLYNKRRSATQGSEEFLRDLRNSLFFAMFMAFSQGMWLIAEASKEFGYGVSLSEVLRIWKGGCIIRAKLIDTLRRYISNENAYLLENEEVMNLLKGKIDSLKNILKASIENEIPVPVLSSSYNYFMSLTEERLPANLIQAQRDFFGAHTFERVDREGVFHINWEEGEIG
Turning to B1, in data set [2], the Km (usually the concentration of substrate that gives half-maximal velocity) was found to be 30.6 ± 1.7 mM; the kcat – broadly, the maximal rate divided by the concentration of active sites – turned out to be 1.3 ± 0.1 s⁻¹; the kcat/Km – broadly, the second-order rate constant that governs catalysis at low substrate concentration – stood at 42 M⁻¹ s⁻¹. For the same molecule, in data set [3], the Km was 0.0012 ± 0.0001 mM, the kcat is 15.9 ± 0.2 s⁻¹ and the kcat/Km worked out at 1.34e+07 M⁻¹ s⁻¹.

B2: 6-phosphogluconate dehydrogenase (6PGDH) (Thermotoga maritima MSB8; R33I/T34I) (protein)
chain: MKSHIGLIGLAVMGQNLALNIARKGYKVSVYNIIAQRTEEFVKNRVTNEEIEPHYDIESFVKSLERPRKIILMVKAGKPVDDTISQLLPHLEPGDLIIDGGNSHYMDTERRFKELSEKGILFLGMGVSGGEYGALHGPSLMPGGSREAYNLVEEILLEIAAKTEDGPCCTYVGERSAGHFVKMVHNGIEYAIMQAIAEVYHIMRDVLSLSSEEMSSIFEEWNRGELSSFLVEITYKILRKKDEETGKPMVDVILDKAEQKGTGKWTSQAALDLGIPTPSINLAVVERVISHFKDIRTRLSKLYNKRRSATQGSEEFLRDLRNSLFFAMFMAFSQGMWLIAEASKEFGYGVSLSEVLRIWKGGCIIRAKLIDTLRRYISNENAYLLENEEVMNLLKGKIDSLKNILKASIENEIPVPVLSSSYNYFMSLTEERLPANLIQAQRDFFGAHTFERVDREGVFHINWEEGEIG
For B2, in data set [2], the Km came to 37.9 ± 3.6 mM, the turnover number (kcat) is 1.7 ± 0.1 s⁻¹ and the kcat/Km came to 46 M⁻¹ s⁻¹. Moreover, in data set [3], the Km worked out at 11.5 ± 1.1 mM, the kcat came to 14.8 ± 0.7 s⁻¹ and the kcat/Km was found to be 1300 M⁻¹ s⁻¹.

B3: 6-phosphogluconate dehydrogenase (6PGDH) (Thermotoga maritima MSB8; A11G/R33I/T34I) (protein)
chain: MKSHIGLIGLGVMGQNLALNIARKGYKVSVYNIIAQRTEEFVKNRVTNEEIEPHYDIESFVKSLERPRKIILMVKAGKPVDDTISQLLPHLEPGDLIIDGGNSHYMDTERRFKELSEKGILFLGMGVSGGEYGALHGPSLMPGGSREAYNLVEEILLEIAAKTEDGPCCTYVGERSAGHFVKMVHNGIEYAIMQAIAEVYHIMRDVLSLSSEEMSSIFEEWNRGELSSFLVEITYKILRKKDEETGKPMVDVILDKAEQKGTGKWTSQAALDLGIPTPSINLAVVERVISHFKDIRTRLSKLYNKRRSATQGSEEFLRDLRNSLFFAMFMAFSQGMWLIAEASKEFGYGVSLSEVLRIWKGGCIIRAKLIDTLRRYISNENAYLLENEEVMNLLKGKIDSLKNILKASIENEIPVPVLSSSYNYFMSLTEERLPANLIQAQRDFFGAHTFERVDREGVFHINWEEGEIG
With B3, in data set [2], the Km is reported as 20.7 ± 0.7 mM, the catalytic constant (kcat) is 10.2 ± 0.2 s⁻¹ and the kcat/Km was 490 M⁻¹ s⁻¹. Moreover, in data set [3], the Km was determined as 2.1 ± 0.1 mM, the kcat came out at 28.3 ± 0.6 s⁻¹ and the kcat/Km came out at 13200 M⁻¹ s⁻¹.

B4: 6-phosphogluconate dehydrogenase (6PGDH) (Thermotoga maritima MSB8; A11G/D82L/Q86L/R33I/T34I/T83L) (protein)
chain: MKSHIGLIGLGVMGQNLALNIARKGYKVSVYNIIAQRTEEFVKNRVTNEEIEPHYDIESFVKSLERPRKIILMVKAGKPVDLLISLLLPHLEPGDLIIDGGNSHYMDTERRFKELSEKGILFLGMGVSGGEYGALHGPSLMPGGSREAYNLVEEILLEIAAKTEDGPCCTYVGERSAGHFVKMVHNGIEYAIMQAIAEVYHIMRDVLSLSSEEMSSIFEEWNRGELSSFLVEITYKILRKKDEETGKPMVDVILDKAEQKGTGKWTSQAALDLGIPTPSINLAVVERVISHFKDIRTRLSKLYNKRRSATQGSEEFLRDLRNSLFFAMFMAFSQGMWLIAEASKEFGYGVSLSEVLRIWKGGCIIRAKLIDTLRRYISNENAYLLENEEVMNLLKGKIDSLKNILKASIENEIPVPVLSSSYNYFMSLTEERLPANLIQAQRDFFGAHTFERVDREGVFHINWEEGEIG
With B4, in data set [2], the Km is recorded as 27.5 ± 1.2 mM, the kcat was found to be 19.3 ± 0.4 s⁻¹ and the catalytic efficiency (kcat/Km) turned out to be 700 M⁻¹ s⁻¹. Further, in data set [3], the Km came out at 0.39 ± 0.02 mM, the kcat turned out to be 21.1 ± 0.3 s⁻¹ and the kcat/Km worked out at 53700 M⁻¹ s⁻¹.

B5: 6-phosphogluconate dehydrogenase (6PGDH) (Thermotoga maritima MSB8; A11G/A447V/D294V/D82L/I120F/K27R/N387S/Q86L/R33I/T34I/T83L/Y383C) (protein)
chain: MKSHIGLIGLGVMGQNLALNIARKGYRVSVYNIIAQRTEEFVKNRVTNEEIEPHYDIESFVKSLERPRKIILMVKAGKPVDLLISLLLPHLEPGDLIIDGGNSHYMDTERRFKELSEKGFLFLGMGVSGGEYGALHGPSLMPGGSREAYNLVEEILLEIAAKTEDGPCCTYVGERSAGHFVKMVHNGIEYAIMQAIAEVYHIMRDVLSLSSEEMSSIFEEWNRGELSSFLVEITYKILRKKDEETGKPMVDVILDKAEQKGTGKWTSQAALDLGIPTPSINLAVVERVISHFKVIRTRLSKLYNKRRSATQGSEEFLRDLRNSLFFAMFMAFSQGMWLIAEASKEFGYGVSLSEVLRIWKGGCIIRAKLIDTLRRYISNENACLLESEEVMNLLKGKIDSLKNILKASIENEIPVPVLSSSYNYFMSLTEERLPANLIQAQRDFFGVHTFERVDREGVFHINWEEGEIG
Regarding B5, in data set [2], the Km is recorded as 15.1 ± 0.6 mM, the kcat worked out at 18.9 ± 0.4 s⁻¹ and the kcat/Km came out at 1250 M⁻¹ s⁻¹. In data set [3], the Michaelis-Menten constant (Km) was determined as 0.22 ± 0.01 mM, the catalytic constant (kcat) is 21.9 ± 0.2 s⁻¹ and the kcat/Km turned out to be 101000 M⁻¹ s⁻¹.

B6: 6-phosphogluconate dehydrogenase (6PGDH) (Thermotoga maritima MSB8; A11G/A447V/D294V/D82L/F326S/F60Y/I120F/K118N/K27R/N387S/Q86L/R33I/T34I/T83L/Y383C) (protein)
chain: MKSHIGLIGLGVMGQNLALNIARKGYRVSVYNIIAQRTEEFVKNRVTNEEIEPHYDIESYVKSLERPRKIILMVKAGKPVDLLISLLLPHLEPGDLIIDGGNSHYMDTERRFKELSENGFLFLGMGVSGGEYGALHGPSLMPGGSREAYNLVEEILLEIAAKTEDGPCCTYVGERSAGHFVKMVHNGIEYAIMQAIAEVYHIMRDVLSLSSEEMSSIFEEWNRGELSSFLVEITYKILRKKDEETGKPMVDVILDKAEQKGTGKWTSQAALDLGIPTPSINLAVVERVISHFKVIRTRLSKLYNKRRSATQGSEEFLRDLRNSLFSAMFMAFSQGMWLIAEASKEFGYGVSLSEVLRIWKGGCIIRAKLIDTLRRYISNENACLLESEEVMNLLKGKIDSLKNILKASIENEIPVPVLSSSYNYFMSLTEERLPANLIQAQRDFFGVHTFERVDREGVFHINWEEGEIG
Consider B6, for which, in data set [2], the Km is reported as 16.0 ± 1.1 mM, the kcat was 25.8 ± 0.8 s⁻¹ and the kcat/Km is 1620 M⁻¹ s⁻¹. Also, in data set [3], the Michaelis constant (Km) is given as 0.21 ± 0.01 mM, the kcat came out at 23.6 ± 0.3 s⁻¹ and the kcat/Km stood at 113000 M⁻¹ s⁻¹.
